Measurements taken from PMC8499050 (Blood, 2021).

T1: EGR-chloromethylketone active-site inhibited des-(Gla-EGF1) FXa (Homo sapiens, EGR-chloromethylketone in the active site)
T1 chain 1: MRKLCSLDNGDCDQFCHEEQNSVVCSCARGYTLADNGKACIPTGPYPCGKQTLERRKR
T1 chain 2: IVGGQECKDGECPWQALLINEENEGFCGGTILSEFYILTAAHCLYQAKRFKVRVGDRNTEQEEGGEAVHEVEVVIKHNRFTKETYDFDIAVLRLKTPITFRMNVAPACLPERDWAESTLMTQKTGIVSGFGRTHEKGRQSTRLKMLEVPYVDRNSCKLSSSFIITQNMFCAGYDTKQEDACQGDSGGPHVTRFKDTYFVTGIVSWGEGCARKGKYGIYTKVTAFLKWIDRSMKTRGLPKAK


How the values were obtained:
[1] = molecular target: EGR-chloromethylketone active-site inhibited des-(Gla-EGF1) FIXa (Homo sapiens, EGR-chloromethylketone in the active site); experiment: crystal structure
[2] = molecular target: T1, EGR-chloromethylketone active-site …; experiment: crystal structure

binding result [1] | binding result [2] | Binder
binds | – | Mim8 anti-FIXa Fab fragment (Fab, V domains shown) VH: EVQLVESGGGLVQPGRSLRLSCAASGFTFHDYAMHWVRQVPGKGLEWVSGISWRGDIGGYVKSVKGRFTISRDNAKNSLYLQMNSLRAEDTALYYCVKSYGSGSFYNAFDSWGQGTLVTVSS VL: DIQMTQSPSTLSASVGDRVTITCRASQSISSWLAWYQQKPGKAPKFLIYKASKLERGTPSRFSGSGDGTEFSLTISSLQPDDFATYYCLEYSSYIRTFGQGTKVEIK
– | binds | Mim8 anti-FX Fab fragment (Fab, V domains shown) VH: EVQLVQSGAEVKKPGESLRISCKGSGYSFSTSWIVWVRQMPGKGLEWMGMIDPSDSFTSYSPSFQGHVTISADKSISTAYLQWSSLKASDTAMYYCARLHYYNSEEFDVWGQGTLVTVSS VL: EIVLTQSPGTLSLSPGERATLSCRASQSVSSSYLAWYQQKPGQAPRLLIYGQSSRTRGIPDRFSGSGSGTDFTLTISRLEPEDFAVYYCQQFGDSQLFTFGQGTKLEIK
